Data reported in patent US20240207421A1, “NERVE TARGETING PEPTIDES AND METHODS OF USE” (ALUME BIOSCIENCES, INC., priority 2020, published 2024).

Target: Laminin 421/521
Experiment: phage display, NGS count

## MTNSGAK
  Count: 35

## WAYTDYM
  Count: 35

## AHAAGRDMRQGT
  Count: 36

## DVIHSSRGAYFE
  Count: 36

## NWTHLGVARLQP
  Count: 36

## SYDGTMLKQVRL
  Count: 36

## WQWRSTELGYRY
  Count: 36

## WSPANGWRHQTI
  Count: 36

## CLHNGQRSC
  Count: 37

## CTPRSATLC
  Count: 37

## DIMKSPRSNLRS
  Count: 37

## QTFHEYLNPARG
  Count: 37

## SLNTTWVSPMMK
  Count: 37

## AQRMNQA
  Count: 38

## GDAQILM
  Count: 38

## GHRTLVTSERYL
  Count: 38

## LGPSTQGAGQTR
  Count: 38

## TFAAAQAELIMV
  Count: 38

## WEEHRVEILPDV
  Count: 38

## ANRYLAS
  Count: 40

## CKWTQLWGC
  Count: 40

## CLKDTHLNC
  Count: 40

## GQPRNIHLPGTH
  Count: 40

## GSTTHPHFGLPG
  Count: 40

## GWIQDTFVLGRS
  Count: 40

## QGHPFIY
  Count: 40

## SNPKHVSSLGQM
  Count: 40

## WGANTTGRTHGG
  Count: 40

## AQGVWWSEWFAP
  Count: 42

## CFQPKMNSC
  Count: 42

## CWSGNSRSC
  Count: 42

## FPLKIRT
  Count: 42

## LARSSIMAANNV
  Count: 42

## AKTQAPSNWSGV
  Count: 43

## CSVWNSGNC
  Count: 43

## CTGRISKHC
  Count: 43

## GAMMNSNNLVAR
  Count: 43

## GGGYHIFGPLVT
  Count: 43

## HSFLGAR
  Count: 44

## LLAGPFR
  Count: 44

## QTLQTRH
  Count: 44

## ALGGEPRKAYQR
  Count: 45

## CNHLTQKLC
  Count: 45

## CTSKLARHC
  Count: 45

## ADMPQMTLKYGV
  Count: 47

## AWNGNRS
  Count: 47

## GDLLLKR
  Count: 47

## VPQIRIK
  Count: 47

## SWQMRSY
  Count: 48

## YHLGPNQKMRTS
  Count: 48

## ASHSRPLMNYAP
  Count: 49

## QTRWDDGSYQIS
  Count: 49

## SLAVANTRFMIR
  Count: 49

## EGHVWSEYTWGT
  Count: 50

## ETYKVTRVISPW
  Count: 50

## GHPWTEIDFMSS
  Count: 50

## KQELSDNLASHR
  Count: 50

## SFRNLEKLSLWS
  Count: 50

## GDLWNVP
  Count: 51

## GPKNHHQ
  Count: 51

## GSGFRNEEHSAH
  Count: 51

## NNNAAMQNHGVR
  Count: 51

## RAQAHQV
  Count: 51

## CSLANPATC
  Count: 52

## GEPLTRFPNSDS
  Count: 52

## KPILWNRSLNAL
  Count: 52

## GFADVIHRKWSS
  Count: 53

## HQSLAGVPWSRH
  Count: 53

## VPVFLDQARVMK
  Count: 53

## DDLLTAPRLGVW
  Count: 54

## SDRGKTVLHGQI
  Count: 54

## CGITQTTTC
  Count: 55

## CHQRQQTYC
  Count: 55

## EYWHQRGSWFHR
  Count: 55

## YTPRNQL
  Count: 55

## WAFKAPQ
  Count: 61

## GSLDMGNNKQPV
  Count: 62

## WPVRNLL
  Count: 67

## SGWEGKTHQGVR
  Count: 69
